For this series, the target named is T1, Fur (Pseudomonas aeruginosa, UniProt Q03456 1-134).
T1 sequence: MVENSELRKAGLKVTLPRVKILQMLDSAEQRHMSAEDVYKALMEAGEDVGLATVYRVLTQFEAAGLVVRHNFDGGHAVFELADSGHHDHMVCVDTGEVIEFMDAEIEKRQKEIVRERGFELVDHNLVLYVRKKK
Nature of the series: fluorescence anisotropy. In general terms: Fluorescence polarisation rises when a labelled molecule tumbles more slowly, as on binding a larger partner.

B1: prrF1-30 (dsDNA)
DNA 1: GACATGGAAATGAGAATCATTATTATGTC
DNA 2: GACATAATAATGATTCTCATTTCCATGTC
The molecule B1 displayed a Kd of 50 ± 10 nM.

What is called Kd is the free concentration of one partner at which half of the binding sites on the other are occupied at equilibrium, for simple one-to-one binding. Low readings indicate a tighter complex, high ones a looser complex.

Values taken from paper doi:10.1101/2020.11.18.388926.
